# No end group written: not given here.
# T1: human Y5 receptor (human, UniProt Q15761 1-445)
# T1 sequence (looked up): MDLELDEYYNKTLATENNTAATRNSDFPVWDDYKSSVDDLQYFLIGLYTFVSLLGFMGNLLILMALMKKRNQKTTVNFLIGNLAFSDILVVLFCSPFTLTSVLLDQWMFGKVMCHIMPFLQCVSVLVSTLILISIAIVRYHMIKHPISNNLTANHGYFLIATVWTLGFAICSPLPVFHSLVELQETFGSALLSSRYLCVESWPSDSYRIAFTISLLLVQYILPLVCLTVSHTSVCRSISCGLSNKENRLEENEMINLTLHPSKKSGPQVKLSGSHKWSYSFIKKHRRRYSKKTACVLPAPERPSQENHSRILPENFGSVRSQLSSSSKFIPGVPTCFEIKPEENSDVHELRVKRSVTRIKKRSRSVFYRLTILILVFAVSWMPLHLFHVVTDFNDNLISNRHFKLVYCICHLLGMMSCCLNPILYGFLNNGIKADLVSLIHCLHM
# T2: human Y2 receptor (human, UniProt P49146 1-381)
# T2 sequence (looked up): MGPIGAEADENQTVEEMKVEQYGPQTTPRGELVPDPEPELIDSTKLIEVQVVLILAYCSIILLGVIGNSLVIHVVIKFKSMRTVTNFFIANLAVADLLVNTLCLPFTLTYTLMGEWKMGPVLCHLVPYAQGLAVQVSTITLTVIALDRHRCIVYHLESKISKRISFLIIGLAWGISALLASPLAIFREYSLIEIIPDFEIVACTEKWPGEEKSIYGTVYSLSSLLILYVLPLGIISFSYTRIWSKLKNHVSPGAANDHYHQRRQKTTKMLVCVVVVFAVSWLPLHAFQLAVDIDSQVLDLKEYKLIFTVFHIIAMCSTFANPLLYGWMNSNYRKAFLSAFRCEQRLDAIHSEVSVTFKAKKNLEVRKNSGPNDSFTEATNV
# Key:
# human Y5 receptor [1] = target: T1, human Y5 receptor; experiment: cell-based or functional assay
# human Y5 receptor [2] = target: T1, human Y5 receptor; experiment: competition binding, 125I-NPY displaced, COS-7 cells with human Y5
# Experimental: (§1) Transfected COS-7 cells are transferred to culture plates one day after transfection at a density of 40×10^3 cells per well aiming at 5-8% binding of the radioactive ligand. […] Determinations are made in duplicate. Steady state binding is reached with the radioactive ligand under these conditions. EC50 values were calculated using a standard pharmacological data handling software, Prism 3.0 (graphPad Sofware, San Diego, USA).
# human Y4 receptor [3] = target: T3, human Y4 receptor (human, UniProt P50391 1-375); experiment: competition binding, 125I-PP displaced, COS-7 cells with human Y4
# T3 construct: whole, on cells; also called PP receptor
# Experimental: as §1
# human Y2 receptor = target: T2, human Y2 receptor; experiment: cell-based or functional assay
# human Y4 receptor [4] = target: T3, human Y4 receptor; experiment: cell-based or functional assay
# T3 sequence (P50391 whole entry): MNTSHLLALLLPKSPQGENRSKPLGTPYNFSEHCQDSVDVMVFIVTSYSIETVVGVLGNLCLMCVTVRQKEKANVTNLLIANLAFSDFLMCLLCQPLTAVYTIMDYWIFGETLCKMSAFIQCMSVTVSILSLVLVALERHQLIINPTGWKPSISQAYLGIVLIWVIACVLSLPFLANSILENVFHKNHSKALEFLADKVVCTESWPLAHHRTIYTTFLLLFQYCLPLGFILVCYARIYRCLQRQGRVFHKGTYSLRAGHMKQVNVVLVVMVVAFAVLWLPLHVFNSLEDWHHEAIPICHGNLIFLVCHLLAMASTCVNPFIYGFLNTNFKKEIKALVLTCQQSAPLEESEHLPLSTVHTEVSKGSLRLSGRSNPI
Binder,EC50 (inositol phosphate turnover) (human Y5 receptor [1]) [nM],IC50 (human Y5 receptor [2]) [nM],IC50 (human Y4 receptor [3]) [nM],EC50 (inositol phosphate turnover) (human Y2 receptor) [nM],EC50 (inositol phosphate turnover) (human Y4 receptor [4]) [nM]
KKKKKKRHYLNLVTRQRY-NH2 (also called [Lys]6-PYY25-36) [Lys-Lys-Lys-Lys-Lys-Lys-PYY25-36],> 1000,429,,,
"APLKPVYPGDNATPEQMAQYAADLRRYINMLTRQRY-NH2 [[Lys4,Gln34]PP]",3.8,0.87,6,0.17,64

# Reference: US20090186811A1 (published 2009)
